From patent US20180117114A1, “PEPTIDES THAT MODULATE THE EFFECT OF THE CRMP: NEUROFIBROMIN COMPLEX ON SYNAPTIC TRANSMISSION” (Indiana University Research and Technology Coporation, priority 2015, published 2018)

Assays:
Assay in all cases: cell-based or functional assay
[1] = target: CaV2.2 expressed in human embryonic kidney 293 (HEK293) cells
[2] = target: CaV2.2 in transfected neurons
[3] = target: CaV2.2 in dorsal root ganglion neurons from Nf1+/- mice (mouse) (UniProt O55017)
Sequence of CaV2.2 in dorsal root ganglion neurons from Nf1+/- mice (mouse) (O55017 whole entry): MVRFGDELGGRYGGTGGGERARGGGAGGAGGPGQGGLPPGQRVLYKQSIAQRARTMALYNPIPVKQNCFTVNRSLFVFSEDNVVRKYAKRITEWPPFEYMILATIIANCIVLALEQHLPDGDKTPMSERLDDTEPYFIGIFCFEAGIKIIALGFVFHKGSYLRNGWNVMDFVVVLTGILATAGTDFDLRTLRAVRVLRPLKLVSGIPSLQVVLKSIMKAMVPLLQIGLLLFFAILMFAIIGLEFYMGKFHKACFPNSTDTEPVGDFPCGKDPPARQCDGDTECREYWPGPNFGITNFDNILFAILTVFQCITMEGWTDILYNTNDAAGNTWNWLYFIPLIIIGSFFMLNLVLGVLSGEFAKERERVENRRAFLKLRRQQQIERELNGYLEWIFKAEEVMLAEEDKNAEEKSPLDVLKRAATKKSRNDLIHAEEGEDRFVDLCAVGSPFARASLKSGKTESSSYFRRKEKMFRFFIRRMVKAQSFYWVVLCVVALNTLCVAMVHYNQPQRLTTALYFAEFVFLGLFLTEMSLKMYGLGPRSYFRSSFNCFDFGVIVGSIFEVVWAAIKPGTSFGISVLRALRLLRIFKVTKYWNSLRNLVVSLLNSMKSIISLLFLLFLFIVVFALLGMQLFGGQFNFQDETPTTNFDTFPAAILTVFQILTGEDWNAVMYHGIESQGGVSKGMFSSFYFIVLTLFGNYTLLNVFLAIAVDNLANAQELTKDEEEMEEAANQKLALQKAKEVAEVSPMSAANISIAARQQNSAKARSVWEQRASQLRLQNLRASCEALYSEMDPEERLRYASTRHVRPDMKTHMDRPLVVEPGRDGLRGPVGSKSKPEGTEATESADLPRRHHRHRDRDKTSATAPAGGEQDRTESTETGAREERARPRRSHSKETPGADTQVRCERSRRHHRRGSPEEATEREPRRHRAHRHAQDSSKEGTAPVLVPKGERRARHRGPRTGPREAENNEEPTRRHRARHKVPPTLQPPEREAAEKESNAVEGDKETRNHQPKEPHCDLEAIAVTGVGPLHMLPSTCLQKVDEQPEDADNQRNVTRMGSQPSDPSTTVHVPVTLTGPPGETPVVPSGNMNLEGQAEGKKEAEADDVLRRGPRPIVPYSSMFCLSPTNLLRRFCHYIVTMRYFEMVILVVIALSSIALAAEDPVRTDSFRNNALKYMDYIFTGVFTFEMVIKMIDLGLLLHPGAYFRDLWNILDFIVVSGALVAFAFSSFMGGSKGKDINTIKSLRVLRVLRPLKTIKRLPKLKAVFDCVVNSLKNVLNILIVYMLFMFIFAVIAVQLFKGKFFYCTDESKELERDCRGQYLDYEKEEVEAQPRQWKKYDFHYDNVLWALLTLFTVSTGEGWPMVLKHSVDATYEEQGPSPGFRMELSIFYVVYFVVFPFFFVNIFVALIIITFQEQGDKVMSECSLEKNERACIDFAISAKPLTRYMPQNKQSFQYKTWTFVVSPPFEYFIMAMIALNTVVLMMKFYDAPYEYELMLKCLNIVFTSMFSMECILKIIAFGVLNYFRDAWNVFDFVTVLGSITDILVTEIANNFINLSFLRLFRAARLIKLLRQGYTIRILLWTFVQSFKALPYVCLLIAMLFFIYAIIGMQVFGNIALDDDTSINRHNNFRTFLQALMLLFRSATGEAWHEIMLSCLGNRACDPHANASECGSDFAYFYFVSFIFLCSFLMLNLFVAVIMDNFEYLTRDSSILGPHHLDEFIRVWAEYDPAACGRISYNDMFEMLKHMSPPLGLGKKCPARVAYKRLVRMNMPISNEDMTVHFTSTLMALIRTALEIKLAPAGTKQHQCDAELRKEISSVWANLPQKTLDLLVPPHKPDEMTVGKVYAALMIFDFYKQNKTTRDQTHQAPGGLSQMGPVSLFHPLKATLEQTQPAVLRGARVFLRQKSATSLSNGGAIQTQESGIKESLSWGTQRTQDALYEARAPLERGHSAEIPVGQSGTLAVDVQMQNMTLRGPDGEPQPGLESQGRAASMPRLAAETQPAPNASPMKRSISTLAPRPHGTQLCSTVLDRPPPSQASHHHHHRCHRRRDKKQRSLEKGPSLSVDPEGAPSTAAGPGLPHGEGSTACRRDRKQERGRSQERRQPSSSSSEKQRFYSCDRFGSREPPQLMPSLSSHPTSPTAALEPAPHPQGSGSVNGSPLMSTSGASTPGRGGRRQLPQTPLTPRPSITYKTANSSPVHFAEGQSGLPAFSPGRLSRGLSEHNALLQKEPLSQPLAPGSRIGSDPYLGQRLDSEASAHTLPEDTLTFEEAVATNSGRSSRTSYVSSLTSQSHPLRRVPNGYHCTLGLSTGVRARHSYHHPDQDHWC

Substance | cells exhibiting CaV2.2 staining on the surface [1] [%] | reduction of peak Ca^2+ current density compared to CRMP-2 neurons (whole-cell voltage clamp) [2] [%] | reduction in KCl-stimulated CGRP release compared with TAT-control (10 µM TAT-CBD3) [3] [%]
CBD3 peptide fused to enhanced green fluorescent protein (EGFP) | 10 | 64 | 
TAT-CBD3 (peptide) |  |  | 85
